Measurements reported in publication PMC11246345.

How the values were obtained:
VEGF-A 165 = experiment: ELISA
VEGF-A 189 = experiment: ELISA

%relative binding activity (against a reference standard) (VEGF-A 165): 97% | %relative binding activity (against a reference standard) (VEGF-A 189): 97%
Substance: US-aflibercept (Fc fusion)
